Experimental data taken from PMC2816023.

Biological target: recombinant extracellular region of human calsyntenin-1 (residues 29-859) (human) (UniProt O94985)
Assay: SPR

UniProt O94985, sequence (O94985 29-859): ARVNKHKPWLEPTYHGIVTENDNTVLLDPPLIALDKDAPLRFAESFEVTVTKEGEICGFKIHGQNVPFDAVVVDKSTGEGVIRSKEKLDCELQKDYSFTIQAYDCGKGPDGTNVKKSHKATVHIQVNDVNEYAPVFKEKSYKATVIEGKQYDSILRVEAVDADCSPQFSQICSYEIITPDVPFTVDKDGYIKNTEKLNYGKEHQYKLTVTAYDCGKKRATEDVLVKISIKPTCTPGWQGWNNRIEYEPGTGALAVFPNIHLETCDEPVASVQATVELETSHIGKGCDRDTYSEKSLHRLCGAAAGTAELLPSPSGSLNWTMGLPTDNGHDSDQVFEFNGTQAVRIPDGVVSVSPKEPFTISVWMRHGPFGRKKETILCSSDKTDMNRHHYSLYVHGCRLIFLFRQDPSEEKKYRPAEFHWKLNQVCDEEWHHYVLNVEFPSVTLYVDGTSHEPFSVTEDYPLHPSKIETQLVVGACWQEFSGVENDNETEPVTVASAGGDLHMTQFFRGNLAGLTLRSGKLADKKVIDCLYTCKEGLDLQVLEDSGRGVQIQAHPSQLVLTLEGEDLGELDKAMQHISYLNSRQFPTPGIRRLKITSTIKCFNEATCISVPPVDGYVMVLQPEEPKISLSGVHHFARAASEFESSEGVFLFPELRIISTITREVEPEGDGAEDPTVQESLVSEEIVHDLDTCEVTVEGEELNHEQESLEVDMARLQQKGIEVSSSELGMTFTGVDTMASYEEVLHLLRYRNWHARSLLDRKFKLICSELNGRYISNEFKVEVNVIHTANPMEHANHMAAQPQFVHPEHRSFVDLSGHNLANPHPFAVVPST

fibrillin-1 fragment PF1 (from UniProt P35555 45-2731) (domain or fragment)
Kd: 240 nM
